# Data: IntAct's records for PubMed 24240280
# B1: Synaptic vesicle glycoprotein 2C (Homo sapiens), Q496J9 (parent)
# chain: MEDSYKDRTSLMKGAKDIAREVKKQTVKKVNQAVDRAQDEYTQRSYSRFQDEEDDDDYYPAGETYNGEANDDEGSSEATEGHDEDDEIYEGEYQGIPSMNQAKDSIVSVGQPKGDEYKDRRELESERRADEEELAQQYELIIQECGHGRFQWALFFVLGMALMADGVEVFVVGFVLPSAETDLCIPNSGSGWLGSIVYLGMMVGAFFWGGLADKVGRKQSLLICMSVNGFFAFLSSFVQGYGFFLFCRLLSGFGIGGAIPTVFSYFAEVLAREKRGEHLSWLCMFWMIGGIYASAMAWAIIPHYGWSFSMGSAYQFHSWRVFVIVCALPCVSSVVALTFMPESPRFLLEVGKHDEAWMILKLIHDTNMRARGQPEKVFTVNKIKTPKQIDELIEIESDTGTWYRRCFVRIRTELYGIWLTFMRCFNYPVRDNTIKLTIVWFTLSFGYYGLSVWFPDVIKPLQSDEYALLTRNVERDKYANFTINFTMENQIHTGMEYDNGRFIGVKFKSVTFKDSVFKSCTFEDVTSVNTYFKNCTFIDTVFDNTDFEPYKFIDSEFKNCSFFHNKTGCQITFDDDYSAYWIYFVNFLGTLAVLPGNIVSALLMDRIGRLTMLGGSMVLSGISCFFLWFGTSESMMIGMLCLYNGLTISAWNSLDVVTVELYPTDRRATGFGFLNALCKAAAVLGNLIFGSLVSITKSIPILLASTVLVCGGLVGLCLPDTRTQVLM
# Variants of: B1
# Conditions: with bxa1_clobo botA
row,Variant,effect of a mutation on the interaction
1,F563A,disrupting interaction strength
